Test results: patent publication US8344120B2, “Nucleic acid molecules encoding rage fusion proteins” (TransTech Pharma, Inc., priority 2006, dated 2013)
Where “and” joins values, the source holds several entries; their conditions need not be identical. Equal values may be shown once. Read-outs that look alike come from different tables or passages of the source.

Assays:
[1] = cited from earlier work
[2] = normal and diabetic rats; cited from earlier work
mouse model of AD = test: APP transgenic mouse model of AD; type: in vivo, mice; conditions: treated for 3 months, qod i.p.; versus vehicle and human IgG1
Description: Experiments were performed to evaluate whether TTP-4000 could affect amyloid formation and cognitive dysfunction in a mouse model of AD. The experiments utilized transgenic mice expressing the human Swedish mutant amyloid precursor protein (APP) under the control of the PDGF-B chain promoter. Over time, these mice generate high levels of the RAGE ligand, amyloid beta (Aβ).
The APP mice (male) used in this experiment were designed by microinjection of the human APP gene (with the Swedish and London mutations) into mouse eggs under the control of the platelet-derived growth factor B (PDGF-B) chain gene promoter. The mice were generated on a C57BL/6 background and were developed by Molecular Therapeutics Inc. Animals were fed ad libitum and maintained by brother sister mating. The mice generated from this construct develop amyloid deposits starting at 6 months of age. Animals were aged for 6 months and then maintained for 90 days and sacrificed for amyloid quantification.
APP transgenic mice were administered vehicle or TTP4000 every other day [qod (i.p.)] for 90 days starting at 6 months of age. At the end of the experiment, animals were sacrificed and examined for Aβ plaque burden in the brain (i.e., plaque number). A 6-month control APP group was used to determine the baseline of amyloid deposits. In addition, at the end of the study, the animals were subjected to behavioral (Morris water maze) analysis. The investigators were blinded to the study compounds. Samples were given to the mice at 0.25 ml/mouse/every other day.
For histological examination, the animals were anesthetized with an intraperitoneal injection (IP) of sodium pentobarbital (50 mg/kg). The animals were transcardially perfused with 4° C., phosphate-buffered saline (PBS) followed by 4% paraformaldehyde. The brains were removed and placed in 4% paraformaldehyde over night. The brains were processed to paraffin and embedded. Ten serial 30-μm thick sections through the brain were obtained. Sections were subjected to primary antibody overnight at 4° C. (Aβ peptide antibody) in order to detect the amyloid deposits in the brain of the transgenic animals (Guo et al., J. Neurosci., 22:5900-5909 (2002)). Sections were washed in Tris-buffered saline (TBS) and secondary antibody was added and incubated for 1 hour at room temperature. After washing, the sections were incubated as instructed in the Vector ABC Elite kit (Vector Laboratories) and stained with […] (DAB). The reactions were stopped in water and cover-slipped after treatment with xylene. The amyloid area in each section was determined with a computer-assisted image analysis system, consisting of a Power Macintosh computer equipped with a Quick Capture frame grabber card, Hitachi CCD camera mounted on an Olympus microscope and camera stand. NIH Image Analysis Software, v. 1.55 was used. The images were captured and the total area of amyloid was determined over the ten sections. A single operator blinded to treatment status performed all measurements. Summing the amyloid volumes of the sections and dividing by the total number of sections was done to calculate the amyloid volume.
For quantitative analysis, an enzyme-linked immunosorbent assay (ELISA) was used to measure the levels of human total Aβ, Aβtotal and Aβ1-42 in the brains of APP transgenic mice (Biosource International, Camarillo, Calif.). Aβtotal and Aβ1-42 were extracted from mouse brains by guanidine hydrochloride and quantified as described by the manufacturer. […]

S100b (S100) = target: T1, S100b (S100) (Homo sapiens, UniProt P04271); test: In vitro ligand binding ELISA, immobilized S100b; conditions: ligand 5 micrograms per well; fusion protein at increasing dilutions, 37° C. one hour
T1 sequence (P04271 1-92): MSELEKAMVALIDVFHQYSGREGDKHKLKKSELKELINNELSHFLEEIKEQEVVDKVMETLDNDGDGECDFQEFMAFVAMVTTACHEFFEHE
Description: (§1) For example, the RAGE fusion protein may be used in a binding assay to identify potential RAGE ligands. In one example embodiment of such a binding assay, a known RAGE ligand may coated onto a solid substrate (e.g., Maxisorb plates) at a concentration of about 5 micrograms per well, where each well contains a total volume of about 100 microliters (4). The plates may be incubated at 4° C. overnight to allow the ligand to absorb or bind to the substrate. Alternatively, shorter incubation periods at higher temperature (e.g., room temperature) may be used. […] The RAGE fusion protein bound to the immobilized ligand may be detected in a variety of ways. […] The bound complex may be detected by adding the alkaline phosphatase substrate, para-nitrophenylphosphate (PNPP), and measuring conversion of PNPP to para-nitrophenol (PNP) as an increase in absorbance at 405 nm. […] In the absence of ligand (i.e., coating with only BSA) there was no increase in absorbance. […] Binding was detected by the addition of an immunodetection complex containing a monoclonal mouse anti-human IgG1 diluted 1:11,000 to a final assay concentration (FAC) of 21 ng/100 μL, a biotinylated goat anti-mouse IgG diluted 1:500, to a FAC of […], and an avidin-linked alkaline phosphatase. […]

amyloid-beta (Abeta) = target: T2, amyloid-beta (Abeta) (Homo sapiens, UniProt P05067); test: In vitro ligand binding ELISA, immobilized amyloid-beta; conditions: ligand 5 micrograms per well; fusion protein at increasing dilutions, 37° C. one hour
T2 construct: Amyloid Beta (1-40) from Biosource; purchased Biosource
Description: as §1

[3] = tested on: recurrent diabetes in syngeneic NOD transplant model; test: Syngeneic islet transplantation in NOD mice; type: in vivo
Source text: Spontaneous autoimmune non-obese diabetic mice (NOD/LtJ) (12-25 weeks old) served as recipients for islet cells, while young pre-diabetic NOD/LtJ mice (6-7 weeks old) served as donors in syngeneic islet transplantation. Islets for transplantation were isolated as described above in Section A (Allogeneic Islet Transplantation). Diabetic NOD/LtJ mice received islet grafts within 2 days of the diagnosis of diabetes. 500-600 freshly isolated islets (approximately 550 islet equivalents) from donor mice were picked up with an infusion set and transplanted into the subcapular space of the right kidney. Test compounds were administered as soon as the islets were transplanted and continued for approximately 8 weeks. […] Islet graft function was monitored by serial blood glucose measurements daily for the first 2 weeks after islet transplantation, followed by every other day thereafter. Reversal of diabetes was defined as blood glucose less than 200 mg/dl on two consecutive measurements. Percentage graft loss was determined when blood glucose exceeded 250 mg/dl on two consecutive measurements.

amphoterin (Ampho) = target: T3, amphoterin (Ampho) (Homo sapiens, UniProt P09429); test: In vitro ligand binding ELISA, immobilized amphoterin; conditions: ligand 5 micrograms per well; fusion protein at increasing dilutions, 37° C. one hour
T3 sequence (P09429 1-215): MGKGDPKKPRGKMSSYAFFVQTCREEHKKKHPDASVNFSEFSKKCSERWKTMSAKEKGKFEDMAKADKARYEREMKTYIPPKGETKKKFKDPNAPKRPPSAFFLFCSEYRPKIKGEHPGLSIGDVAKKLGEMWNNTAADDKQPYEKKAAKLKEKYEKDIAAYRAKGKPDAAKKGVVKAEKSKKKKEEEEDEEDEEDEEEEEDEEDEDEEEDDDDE
Description: as §1

[4] = 300 ug LD + 100 ug qod ip, syngeneic islets in NOD mice

T2 sequence (P05067 672-711 limits assumed): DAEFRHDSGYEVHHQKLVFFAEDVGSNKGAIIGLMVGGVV

human sRAGE: human soluble RAGE (V, C1 and C2 domains)
half-life ([1]; assessed by retention of immunoreactivity sRAGE): less than 2 hours | half-life in plasma [1]: about 2 hours

sRAGE: soluble RAGE: the RAGE protein that does not include the transmembrane region or the cytoplasmic tail; species not stated at the place [reference compound]
half-life in plasma [1]: only a few hours

B1: rodent sRAGE: rodent soluble RAGE (protein, UniProt Q62151 23-340, looked up)
extracellular domain: GQNITARIGEPLVLSCKGAPKKPPQQLEWKLNTGRTEAWKVLSPQGGPWDSVARILPNGSLLLPATGIVDEGTFRCRATNRRGKEVKSNYRVRVYQIPGKPEIVDPASELTASVPNKVGTCVSEGSYPAGTLSWHLDGKLLIPDGKETLVKEETRRHPETGLFTLRSELTVIPTQGGTHPTFSCSFSLGLPRRRPLNTAPIQLRVREPGPPEGIQLLVEPEGGIVAPGGTVTLTCAISAQPPPQVHWIKDGAPLPLAPSPVLLLPEVGHEDEGTYSCVATHPSHGPQESPPVSIRVTETGDEGPAEGSVGESGLGTLA
modifications: extracellular domain
notes: rodent soluble RAGE
half-life [2]: approximately 20 hours

B2: mouse sRAGE: mouse soluble RAGE used as comparator in the AD mouse model (protein, UniProt Q62151 23-340, looked up)
extracellular domain: GQNITARIGEPLVLSCKGAPKKPPQQLEWKLNTGRTEAWKVLSPQGGPWDSVARILPNGSLLLPATGIVDEGTFRCRATNRRGKEVKSNYRVRVYQIPGKPEIVDPASELTASVPNKVGTCVSEGSYPAGTLSWHLDGKLLIPDGKETLVKEETRRHPETGLFTLRSELTVIPTQGGTHPTFSCSFSLGLPRRRPLNTAPIQLRVREPGPPEGIQLLVEPEGGIVAPGGTVTLTCAISAQPPPQVHWIKDGAPLPLAPSPVLLLPEVGHEDEGTYSCVATHPSHGPQESPPVSIRVTETGDEGPAEGSVGESGLGTLA
modifications: extracellular domain
notes: mouse soluble RAGE used as comparator in the AD mouse model
Aβ plaques in the brain (mouse model of AD): fewer Aβ plaques | cognitive dysfunction (Morris water maze) (mouse model of AD): less cognitive dysfunction

B3: TTP-3000: three domain RAGE fusion protein: human RAGE N-terminal sequence (to position 136) linked to human IgG Fc (γ1) without hinge; SEQ ID NO: 35-37, 57 (protein)
chain: QNITARIGEPLVLKCKGAPKKPPQRLEWKLNTGRTEAWKVLSPQGGGPWDSVARVLPNGSLFLPAVGIQDEGIFRCQAMNRNGKETKSNYRVRVYQIPGKPEIVDSASELTAGPSVFLFPPKPKDTLMISRTPEVTCVVVDVSHEDPEVKFNWYVDGVEVHNAKTKPREEQYNSTYRVVSVLTVLHQDWLNGKEYKCKVSNKALPAPIEKTISKAKGQPREPQVYTLPPSRDELTKNQVSLTCLVKGFYPSDIAVEWESNGQPENNYKTTPPVLDSDGSFFLYSKLTVDKSRWQQGNVFSCSVMHEALHNHYTQKSLSLSPGK
modifications: non-natural residues
binding to immobilized S100b (increase in absorbance at 405 nm) (S100b (S100)): specifically interact | binding to immobilized amyloid-beta (increase in absorbance at 405 nm) (amyloid-beta (Abeta)): specifically interact | day of graft loss for each animal [3, 4]: 42 days and 41 days and 34 days and 32 days and 30 days and 44 days and 46 days | day of graft loss, Mean [3, 4]: 38.43 days | time before detection of graft failure, in words ([3]; versus animals not treated at all): increase in the time before detection of graft failure | binding to immobilized amphoterin (increase in absorbance at 405 nm) (amphoterin (Ampho)): specifically interact
